Data: IntAct's records for PubMed 34597683

B1: Prickle-like protein 1 (Mus musculus), Q3U5C7 (parent)
chain: MPLEMEPKMSKLVFGCQRSSTSDDDSGCALEEYAWVPPGLRPEQIQLYFACLPEEKVPYVNSPGEKHRIKQLLYQLPPHDNEVRYCQSLSEEEKKELQVFSAQRKKEALGRGTIKLLSRAVMHAVCEQCGLQMNGGEVAVFASRAGPGVCWHPSCFVCFTCNELLVDLIYFYQDGKIHCGRHHAELLKPRCSACDEIIFADECTEAEGRHWHMKHFCCLECETVLGGQRYIMKDGRPFCCGCFESLYAEYCETCGEHIGVDHAQMTYDGQHWHATEACFSCAQCKASLLGCPFLPKQGQIYCSKTCSLGEDIHASDSSDSAFQSARSRDSRRSVRMGRSSRSADQCRQSLLLSPALNYKFPGLSGNADDTLSRKLDDVSLASRQGAGFANEEFWKARVEQEASEDPEEWAEHEDYMTQLLLKFGDKNLFQQQSSEVDPRASEHWIPDNMVTNKPEVKPNHQGLASKKYQSDMYWAQSQDGLGDSAYGSHPGPASSRRLQELDLDHGAAGYTHDQSQWYEDSLECLSDLKPEQSIRDSMDSLALSNITGASVDGESKPRPSLYSLQNFEEIEAEDCEKMSNMGTLNSSMLHRSAESLQSLNSGLCPEKILPEEKPAHLPVLRRSKSQSRPQQVKFSDDVIDNGSYDIEIRQPPMSERTRRRAYHFEERGSRPHHHRHRRSRKSRSDNALNLVTERKYSAKDRLRLYTPDNYEKFIQNKSARELQAYMQNANLYSQYAHATSDYALQNPGMNRFLGLCGEDDDSWCSSSTSSSDSEEEGYFLGQPIPQPRPQRFTYYTDDLSSPASALPTPQFTQRTTKSKKKKGHKGKNCIIS
partner: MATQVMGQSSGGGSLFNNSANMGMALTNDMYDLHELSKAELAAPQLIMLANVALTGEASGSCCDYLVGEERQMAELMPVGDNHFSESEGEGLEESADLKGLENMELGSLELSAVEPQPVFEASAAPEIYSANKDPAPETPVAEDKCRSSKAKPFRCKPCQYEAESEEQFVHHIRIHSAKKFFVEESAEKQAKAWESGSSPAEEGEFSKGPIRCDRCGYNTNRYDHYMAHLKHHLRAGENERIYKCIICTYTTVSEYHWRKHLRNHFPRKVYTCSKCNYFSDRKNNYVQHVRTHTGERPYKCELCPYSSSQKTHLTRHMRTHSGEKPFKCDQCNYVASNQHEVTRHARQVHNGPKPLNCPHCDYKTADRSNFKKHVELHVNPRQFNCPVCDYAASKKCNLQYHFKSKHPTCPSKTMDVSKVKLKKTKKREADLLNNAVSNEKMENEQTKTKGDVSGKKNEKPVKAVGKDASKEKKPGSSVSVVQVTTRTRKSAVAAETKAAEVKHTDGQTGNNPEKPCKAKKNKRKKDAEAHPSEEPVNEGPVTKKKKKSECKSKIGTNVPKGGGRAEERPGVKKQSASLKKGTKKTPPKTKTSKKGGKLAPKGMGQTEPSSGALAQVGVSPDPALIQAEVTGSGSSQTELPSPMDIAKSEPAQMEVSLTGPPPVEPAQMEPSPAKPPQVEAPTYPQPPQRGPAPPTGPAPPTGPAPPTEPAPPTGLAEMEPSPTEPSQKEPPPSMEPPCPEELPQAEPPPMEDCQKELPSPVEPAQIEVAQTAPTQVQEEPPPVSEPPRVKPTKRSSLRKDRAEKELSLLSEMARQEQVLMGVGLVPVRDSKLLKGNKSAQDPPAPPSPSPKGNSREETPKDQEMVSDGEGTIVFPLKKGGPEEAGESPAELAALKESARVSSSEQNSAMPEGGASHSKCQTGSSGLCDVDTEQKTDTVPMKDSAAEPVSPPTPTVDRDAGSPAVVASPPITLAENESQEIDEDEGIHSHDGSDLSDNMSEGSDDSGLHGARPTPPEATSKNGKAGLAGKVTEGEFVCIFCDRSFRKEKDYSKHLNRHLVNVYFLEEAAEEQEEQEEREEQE

Variants of: B1
Details: with rest_mouse Rest

Row | Variant | effect of a mutation on the interaction
1 | R104Q | decreasing interaction
